{"source": "patent US20120045438A1", "about": "(Janssen / Centocor, published 2012)", "data": [{"target": "T1, human IL-13 R130Q variant (R110Q of the mature chain) (human, UniProt P35225 35-146, Biotinylated on amines (NHS-LC-biotin, 4:1) in ELISA, panning and competition assays. The letters are unchanged.)", "T1 construct": "R130Q counts from Met 1 of the signal peptide, R110Q on the mature chain; Bought from Peprotech; also called IL-13 R110Q; b-R130Q", "assay": "single-point (10 nM) phage Fab ELISA on biotinylated IL-13 R130Q", "units": {"% of Lc16Hc7": "%"}, "values": [{"binder": "Phage # 39 Fab (IL-13-142 library) (Fab, V domains shown, Fab on phage pIX) VH: QVTLKESGPVLVKPTETLTLTCTVSGFSLSTYGMGVGWIRQPPGKALEWLAHIWWDDVKRYNPALKSRLTISKDTSKSQVVLTMTNMDPVDTATYYCARMGSDYDVWFDYWGQGTLVTVSS VL: DIQMTQSPSTLSASVGDRVTITCRASKSISKYLAWYQQKPGKAPKLLIYSGSTLQSGVPSRFSGSGSGTEFTLTISSLQPDDFATYYCQQHLGVPYTFGGGTKVEIK", "% of Lc16Hc7": 178}, {"binder": "Phage # 51 Fab (IL-13-142 library) (Fab, V domains shown, Fab on phage pIX) VH: QVTLKESGPVLVKPTETLTLTCTVSGFSLSTYGMGVGWIRQPPGKALEWLAHIWWDDVKRYNPALKSRLTISKDTSKSQVVLTMTNMDPVDTATYYCARMGSDYDVWFDYWGQGTLVTVSS VL: DIQMTQSPSTLSASVGDRVTITCRASKSISKYLAWYQQKPGKAPKLLIYSGSTLQSGVPSRFSGSGSGTEFTLTISSLQPDDFATYYCQQHSAGPYTFGGGTKVEIK", "% of Lc16Hc7": 192}, {"binder": "Phage # 77 Fab (IL-13-142 library) (Fab, V domains shown, Fab on phage pIX) VH: QVTLKESGPVLVKPTETLTLTCTVSGFSLSTYGMGVGWIRQPPGKALEWLAHIWWDDVKRYNPALKSRLTISKDTSKSQVVLTMTNMDPVDTATYYCARMGSDYDVWFDYWGQGTLVTVSS VL: DIQMTQSPSTLSASVGDRVTITCRASKSISKYLAWYQQKPGKAPKLLIYSGSTLQSGVPSRFSGSGSGTEFTLTISSLQPDDFATYYCQQHDFAPYTFGGGTKVEIK", "% of Lc16Hc7": 195}, {"binder": "Phage # 70 Fab (IL-13-142 library) (Fab, V domains shown, Fab on phage pIX) VH: QVTLKESGPVLVKPTETLTLTCTVSGFSLSTYGMGVGWIRQPPGKALEWLAHIWWDDVKRYNPALKSRLTISKDTSKSQVVLTMTNMDPVDTATYYCARMGSDYDVWFDYWGQGTLVTVSS VL: DIQMTQSPSTLSASVGDRVTITCRASKSISKYLAWYQQKPGKAPKLLIYSGSTLQSGVPSRFSGSGSGTEFTLTISSLQPDDFATYYCQQHSWGPYTFGGGTKVEIK", "% of Lc16Hc7": 308}, {"binder": "Phage # 47 Fab (IL-13-142 library) (Fab, V domains shown, Fab on phage pIX) VH: QVTLKESGPVLVKPTETLTLTCTVSGFSLSTYGMGVGWIRQPPGKALEWLAHIWWDDVKRYNPALKSRLTISKDTSKSQVVLTMTNMDPVDTATYYCARMGSDYDVWFDYWGQGTLVTVSS VL: DIQMTQSPSTLSASVGDRVTITCRASKSISKYLAWYQQKPGKAPKLLIYSGSTLQSGVPSRFSGSGSGTEFTLTISSLQPDDFATYYCQQLTYEPYTFGGGTKVEIK", "% of Lc16Hc7": 233}, {"binder": "Phage # 78 Fab (IL-13-142 library) (Fab, V domains shown, Fab on phage pIX) VH: QVTLKESGPVLVKPTETLTLTCTVSGFSLSTYGMGVGWIRQPPGKALEWLAHIWWDDVKRYNPALKSRLTISKDTSKSQVVLTMTNMDPVDTATYYCARMGSDYDVWFDYWGQGTLVTVSS VL: DIQMTQSPSTLSASVGDRVTITCRASKSISKYLAWYQQKPGKAPKLLIYSGSTLQSGVPSRFSGSGSGTEFTLTISSLQPDDFATYYCQQHLMAPYTFGGGTKVEIK", "% of Lc16Hc7": 154}, {"binder": "Phage # 40 Fab (IL-13-142 library) (Fab, V domains shown, Fab on phage pIX) VH: QVTLKESGPVLVKPTETLTLTCTVSGFSLSTYGMGVGWIRQPPGKALEWLAHIWWDDVKRYNPALKSRLTISKDTSKSQVVLTMTNMDPVDTATYYCARMGSDYDVWFDYWGQGTLVTVSS VL: DIQMTQSPSTLSASVGDRVTITCRASKSISKYLAWYQQKPGKAPKLLIYSGSTLQSGVPSRFSGSGSGTEFTLTISSLQPDDFATYYCQQHSRGPYTFGGGTKVEIK", "% of Lc16Hc7": 179}, {"binder": "Phage # 61 Fab (IL-13-142 library) (Fab, V domains shown, Fab on phage pIX) VH: QVTLKESGPVLVKPTETLTLTCTVSGFSLSTYGMGVGWIRQPPGKALEWLAHIWWDDVKRYNPALKSRLTISKDTSKSQVVLTMTNMDPVDTATYYCARMGSDYDVWFDYWGQGTLVTVSS VL: DIQMTQSPSTLSASVGDRVTITCRASKSISKYLAWYQQKPGKAPKLLIYSGSTLQSGVPSRFSGSGSGTEFTLTISSLQPDDFATYYCQQHLFTPYTFGGGTKVEIK", "% of Lc16Hc7": 245}, {"binder": "Phage # 72 Fab (IL-13-142 library) (Fab, V domains shown, Fab on phage pIX) VH: QVTLKESGPVLVKPTETLTLTCTVSGFSLSTYGMGVGWIRQPPGKALEWLAHIWWDDVKRYNPALKSRLTISKDTSKSQVVLTMTNMDPVDTATYYCARMGSDYDVWFDYWGQGTLVTVSS VL: DIQMTQSPSTLSASVGDRVTITCRASKSISKYLAWYQQKPGKAPKLLIYSGSTLQSGVPSRFSGSGSGTEFTLTISSLQPDDFATYYCQQHNEGPYTFGGGTKVEIK", "% of Lc16Hc7": 114}, {"binder": "Phage # 57 Fab (IL-13-142 library) (Fab, V domains shown, Fab on phage pIX) VH: QVTLKESGPVLVKPTETLTLTCTVSGFSLSTYGMGVGWIRQPPGKALEWLAHIWWDDVKRYNPALKSRLTISKDTSKSQVVLTMTNMDPVDTATYYCARMGSDYDVWFDYWGQGTLVTVSS VL: DIQMTQSPSTLSASVGDRVTITCRASKSISKYLAWYQQKPGKAPKLLIYSGSTLQSGVPSRFSGSGSGTEFTLTISSLQPDDFATYYCQQHDWEPYTFGGGTKVEIK", "% of Lc16Hc7": 245}, {"binder": "Phage # 65 Fab (IL-13-142 library) (Fab, V domains shown, Fab on phage pIX) VH: QVTLKESGPVLVKPTETLTLTCTVSGFSLSTYGMGVGWIRQPPGKALEWLAHIWWDDVKRYNPALKSRLTISKDTSKSQVVLTMTNMDPVDTATYYCARMGSDYDVWFDYWGQGTLVTVSS VL: DIQMTQSPSTLSASVGDRVTITCRASKSISKYLAWYQQKPGKAPKLLIYSGSTLQSGVPSRFSGSGSGTEFTLTISSLQPDDFATYYCQQHDFVPYTFGGGTKVEIK", "% of Lc16Hc7": 147}, {"binder": "Phage # 67 Fab (IL-13-142 library) (Fab, V domains shown, Fab on phage pIX) VH: QVTLKESGPVLVKPTETLTLTCTVSGFSLSTYGMGVGWIRQPPGKALEWLAHIWWDDVKRYNPALKSRLTISKDTSKSQVVLTMTNMDPVDTATYYCARMGSDYDVWFDYWGQGTLVTVSS VL: DIQMTQSPSTLSASVGDRVTITCRASKSISKYLAWYQQKPGKAPKLLIYSGSTLQSGVPSRFSGSGSGTEFTLTISSLQPDDFATYYCQQPIDGPYTFGGGTKVEIK", "% of Lc16Hc7": 127}, {"binder": "Phage # 56 Fab (IL-13-142 library) (Fab, V domains shown, Fab on phage pIX) VH: QVTLKESGPVLVKPTETLTLTCTVSGFSLSTYGMGVGWIRQPPGKALEWLAHIWWDDVKRYNPALKSRLTISKDTSKSQVVLTMTNMDPVDTATYYCARMGSDYDVWFDYWGQGTLVTVSS VL: DIQMTQSPSTLSASVGDRVTITCRASKSISKYLAWYQQKPGKAPKLLIYSGSTLQSGVPSRFSGSGSGTEFTLTISSLQPDDFATYYCQQHWDAPYTFGGGTKVEIK", "% of Lc16Hc7": 234}, {"binder": "Phage # 43 Fab (IL-13-142 library) (Fab, V domains shown, Fab on phage pIX) VH: QVTLKESGPVLVKPTETLTLTCTVSGFSLSTYGMGVGWIRQPPGKALEWLAHIWWDDVKRYNPALKSRLTISKDTSKSQVVLTMTNMDPVDTATYYCARMGSDYDVWFDYWGQGTLVTVSS VL: DIQMTQSPSTLSASVGDRVTITCRASKSISKYLAWYQQKPGKAPKLLIYSGSTLQSGVPSRFSGSGSGTEFTLTISSLQPDDFATYYCQQHLGQPYTFGGGTKVEIK", "% of Lc16Hc7": 205}, {"binder": "Phage # 74 Fab (IL-13-142 library) (Fab, V domains shown, Fab on phage pIX) VH: QVTLKESGPVLVKPTETLTLTCTVSGFSLSTYGMGVGWIRQPPGKALEWLAHIWWDDVKRYNPALKSRLTISKDTSKSQVVLTMTNMDPVDTATYYCARMGSDYDVWFDYWGQGTLVTVSS VL: DIQMTQSPSTLSASVGDRVTITCRASKSISKYLAWYQQKPGKAPKLLIYSGSTLQSGVPSRFSGSGSGTEFTLTISSLQPDDFATYYCQQQDMGPYTFGGGTKVEIK", "% of Lc16Hc7": 301}, {"binder": "Phage # 71 Fab (IL-13-142 library) (Fab, V domains shown, Fab on phage pIX) VH: QVTLKESGPVLVKPTETLTLTCTVSGFSLSTYGMGVGWIRQPPGKALEWLAHIWWDDVKRYNPALKSRLTISKDTSKSQVVLTMTNMDPVDTATYYCARMGSDYDVWFDYWGQGTLVTVSS VL: DIQMTQSPSTLSASVGDRVTITCRASKSISKYLAWYQQKPGKAPKLLIYSGSTLQSGVPSRFSGSGSGTEFTLTISSLQPDDFATYYCQQPLDSPYTFGGGTKVEIK", "% of Lc16Hc7": 208}, {"binder": "Phage # 76 Fab (IL-13-142 library) (Fab, V domains shown, Fab on phage pIX) VH: QVTLKESGPVLVKPTETLTLTCTVSGFSLSTYGMGVGWIRQPPGKALEWLAHIWWDDVKRYNPALKSRLTISKDTSKSQVVLTMTNMDPVDTATYYCARMGSDYDVWFDYWGQGTLVTVSS VL: DIQMTQSPSTLSASVGDRVTITCRASKSISKYLAWYQQKPGKAPKLLIYSGSTLQSGVPSRFSGSGSGTEFTLTISSLQPDDFATYYCQQHLDLPYTFGGGTKVEIK", "% of Lc16Hc7": 256}, {"binder": "Phage # 46 Fab (IL-13-142 library) (Fab, V domains shown, Fab on phage pIX) VH: QVTLKESGPVLVKPTETLTLTCTVSGFSLSTYGMGVGWIRQPPGKALEWLAHIWWDDVKRYNPALKSRLTISKDTSKSQVVLTMTNMDPVDTATYYCARMGSDYDVWFDYWGQGTLVTVSS VL: DIQMTQSPSTLSASVGDRVTITCRASKSISKYLAWYQQKPGKAPKLLIYSGSTLQSGVPSRFSGSGSGTEFTLTISSLQPDDFATYYCQQHVTLPYTFGGGTKVEIK", "% of Lc16Hc7": 281}, {"binder": "Phage # 44 Fab (IL-13-142 library) (Fab, V domains shown, Fab on phage pIX) VH: QVTLKESGPVLVKPTETLTLTCTVSGFSLSTYGMGVGWIRQPPGKALEWLAHIWWDDVKRYNPALKSRLTISKDTSKSQVVLTMTNMDPVDTATYYCARMGSDYDVWFDYWGQGTLVTVSS VL: DIQMTQSPSTLSASVGDRVTITCRASKSISKYLAWYQQKPGKAPKLLIYSGSTLQSGVPSRFSGSGSGTEFTLTISSLQPDDFATYYCQQHDIGPYTFGGGTKVEIK", "% of Lc16Hc7": 240}, {"binder": "Phage # 55 Fab (IL-13-142 library) (Fab, V domains shown, Fab on phage pIX) VH: QVTLKESGPVLVKPTETLTLTCTVSGFSLSTYGMGVGWIRQPPGKALEWLAHIWWDDVKRYNPALKSRLTISKDTSKSQVVLTMTNMDPVDTATYYCARMGSDYDVWFDYWGQGTLVTVSS VL: DIQMTQSPSTLSASVGDRVTITCRASKSISKYLAWYQQKPGKAPKLLIYSGSTLQSGVPSRFSGSGSGTEFTLTISSLQPDDFATYYCQQHLTNPYTFGGGTKVEIK", "% of Lc16Hc7": 355}, {"binder": "Phage # 75 Fab (IL-13-142 library) (Fab, V domains shown, Fab on phage pIX) VH: QVTLKESGPVLVKPTETLTLTCTVSGFSLSTYGMGVGWIRQPPGKALEWLAHIWWDDVKRYNPALKSRLTISKDTSKSQVVLTMTNMDPVDTATYYCARMGSDYDVWFDYWGQGTLVTVSS VL: DIQMTQSPSTLSASVGDRVTITCRASKSISKYLAWYQQKPGKAPKLLIYSGSTLQSGVPSRFSGSGSGTEFTLTISSLQPDDFATYYCQQLSYEPYTFGGGTKVEIK", "% of Lc16Hc7": 355}]}]}
